Target: FOXO3a (UniProt O43524)
Assay: IP of FOXO3a, anti-Flag blot for SirT6
Settings: reference: WT-SirT6; sites S338

SirT6 (from UniProt Q8N6T7) S338A
binding against the reference: lost

— PMC6281582
